The target of test [1] is T1, purified recombinant hFA-1 protein (hDlk-1 extracellular region, FA-1) (human, UniProt P80370 24-303).
T1 construct: also called human FA1; purified FA-1; not shown: C-terminal Myc tag and His tag from vector pcDNA4/Myc-His
T1 sequence: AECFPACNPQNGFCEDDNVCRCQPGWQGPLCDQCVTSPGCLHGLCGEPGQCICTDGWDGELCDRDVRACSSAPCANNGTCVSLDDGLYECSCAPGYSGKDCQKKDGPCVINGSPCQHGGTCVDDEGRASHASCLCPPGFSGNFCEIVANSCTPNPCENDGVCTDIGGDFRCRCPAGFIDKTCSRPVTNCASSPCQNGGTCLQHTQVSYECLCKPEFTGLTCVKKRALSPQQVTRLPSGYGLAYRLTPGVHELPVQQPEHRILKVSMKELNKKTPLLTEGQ
The test can be described thus: ELISA, purified recombinant hFA-1 (0.5 to 1 µg/mL) immobilized, antibody dilution series. As to the method: ELISA was carried out in the same manner as described in Example 1, using an ELISA plate on which the purified recombinant hFA-1 protein (0.5 to 1 μg/mL) had been immobilized. Specifically, the ELISA plate was washed with a washing buffer 3 times and it was then blocked using a blocking solution at room temperature for 1 hour (or at 4° C. overnight). Thereafter, the plate was washed with a washing buffer 2 times and a mouse DI-2-14 antibody and a ChDI-2-14 antibody, wherein dilution series were produced using an ELISA buffer, were added to the plate, so that they were allowed to react (at 4° C. overnight). Thereafter, the plate was washed with a washing buffer 3 times and it was then allowed to react with HRP-labeled anti-mouse IgG (final concentration: 1 μg/mL) or HRP-labeled anti-human IgG (final concentration: 1 μg/mL) (both products manufactured by GE Healthcare), which had been diluted with a blocking solution.

For test [2], the target named is T2, hDlk-1 EGF-like motif deletion construct EGF (5-6) expressed on COS-7 cells (human, UniProt P80370 170-383).
T2 construct: also called hDlk (EGF 5-6)-pME18-CHFX
T2 sequence: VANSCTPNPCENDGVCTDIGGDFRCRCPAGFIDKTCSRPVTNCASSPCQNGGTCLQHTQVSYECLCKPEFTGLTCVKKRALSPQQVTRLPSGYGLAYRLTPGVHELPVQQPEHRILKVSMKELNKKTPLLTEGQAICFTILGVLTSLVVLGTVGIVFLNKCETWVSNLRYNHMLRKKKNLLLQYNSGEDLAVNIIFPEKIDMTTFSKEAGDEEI
The test can be described thus: FACS and immunostaining of transfected COS-7 cells. An excerpt: (§1) Each of expression vectors hDlk (EGF 1-2)-pME-CHFX, hDlk (EGF 1-3)-pME-CHFX, hDlk (EGF 3-4)-pME-CHFX, hDlk (EGF 4-6)-pME18-CHFX and hDlk (EGF 5-6)-pME18-CHFX (FIG. 7) was introduced into COS-7 cells and they were then subjected to FACS analysis and the immunostaining of Cytospin specimens, so as to examine sites in a region containing 6 EGF-like motifs existing in the FA-1 region (extracellular region) of hDlk-1, which were recognized by each anti-hDlk-1 monoclonal antibody.
(§2) It has been reported that, among mouse IgG isotypes, IgG2a and IgG2b have strong antibody-dependent cytotoxic activity (ADCC) and that the ADCC of IgG1 is low (please refer to Kipps, T. J. et al., 1985). The isotype of the clone DI-2-14 is mouse IgG1.

The target of test [3] is T3, hDlk-1 EGF-like motif deletion construct EGF (4-6) expressed on COS-7 cells (human, UniProt P80370 131-244).
T3 construct: also called hDlk (EGF 4-6)-pME18-CHFX; hdlk-EGF (4-6)/pME18S-CFHX
T3 sequence: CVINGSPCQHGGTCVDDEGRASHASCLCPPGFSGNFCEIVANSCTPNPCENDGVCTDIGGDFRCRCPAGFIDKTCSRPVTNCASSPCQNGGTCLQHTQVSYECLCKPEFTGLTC
The test can be described thus: FACS and immunostaining of transfected COS-7 cells.
Excerpt: as §1, §2

Test [4] concerns the target T1, purified recombinant hFA-1 protein …. The test can be described thus: ELISA method of Djavadi-Ohaniance: antibody (0.5 nM) equilibrated with hFA-1 (3.125-50 nM), then added to an hFA-1-coated plate. As to the method: Specifically, the purified recombinant hFA-1 protein (1 μg/mL) was added to a 96-well culture plate (Corning) to fix as an antigen (at room temperature for 1 hour). Subsequently, the plate was washed with PBS 3 times and 2% skim milk (PBS solution) was added thereto for blocking (at room temperature for 1 hour). After the plate had been washed with PBS 2 times, an antigen-antibody complex formed by previously mixing an antigen solution (a purified hFA-1 protein; 50, 25, 12.5, 6.25 and 3.125 nM) with each clone of the anti-hDlk-1 monoclonal antibody (0.5 nM) and then equilibrating the mixture was added to the aforementioned ELISA plate for a reaction (at room temperature for 1 hour). After the plate had been washed with PBS 3 times, it was allowed to react with HRP-labeled anti-mouse IgG (final concentration: 1 μg/mL) or HRP-labeled anti-rat IgG (final concentration: 1 μg/mL) (both of which were available from GE Healthcare Biosciences), which had been diluted with a blocking solution, at room temperature for 1 hour.
Subsequently, the affinity (dissociation constant) of these clones for an antigen was calculated by the aforementioned ELISA method. […] The affinity of the clone 2-13 for the purified recombinant hFA-1 was not high and thus the Kd value thereof could not be calculated by the aforementioned method.

B1: anti-hDlk-1 monoclonal antibody clone DI-2-14 (mouse IgG1) (antibody, V domains shown)
VH: EVQLQQSGAELVKPGASVKLSCTASGFNIRDTYIHWVKQRPEQGLEWIGRIDPPNGNLKYDPKFQGKATITADTSSNTAYLQFSSLTSEDTAVYYCARSDGYSFAYWGQGTLVTVSA
VL: DIVMTQAAPSVPVTPGESVSISCRSSKSLLHSNGNTYLYWFLQRPGQSPQLLIYRMSNLASGVPDRFSGSGSGTAFTLRISRVEAEDVGVYYCMQHVEYPFTFGSGTKLEIK
notes: also called mouse DI-2-14; mouse DI-2-14 antibody
On to B1, for which the EC50 (as a rule, the concentration giving half of the maximal effect) in test [1] worked out at 0.01 µg/mL. The binding result in test [2] and in test [3] was “no binding” each time. Besides, the Kd (usually the equilibrium constant for the complex coming apart) in test [4] came to 9.26 nM.

B2: chimeric DI-2-14 antibody (ChDI-2-14), mouse-human chimeric DI-2-14 IgG1/K (antibody, V domains shown)
VH: EVQLQQSGAELVKPGASVKLSCTASGFNIRDTYIHWVKQRPEQGLEWIGRIDPPNGNLKYDPKFQGKATITADTSSNTAYLQFSSLTSEDTAVYYCARSDGYSFAYWGQGTLVTVSA
VL: DIVMTQAAPSVPVTPGESVSISCRSSKSLLHSNGNTYLYWFLQRPGQSPQLLIYRMSNLASGVPDRFSGSGSGTAFTLRISRVEAEDVGVYYCMQHVEYPFTFGSGTKLEIK
notes: domain: human γ1 heavy chain constant region; not shown: human kappa chain constant region (CL) of vector pChDI-2-14
As to B2, the EC50 in test [1] was 0.01 µg/mL.

Source of the values: patent US20090326205A1 (LIV TECH, published 2009).
